Several values for one entry are separate records, joined by “and”; a condition that tells them apart may be missing. Identical values can stand only once.
Columns and labels:
Assay type in all cases: cell-based, human
[1] = tested on: Detroit 562 cells; assay: Adherence of rPsaA- or peptide-coated fluospheres (beads) to Detroit 562 cells; conditions: for mean adherence of coated fluospheres (mean FU±SE): 3,100±500 fluospheres per well, 2 hour incubation; for mean adherence signal (n=6): 2600 fluospheres/well; for mean adherence (% CV): batch 6, dilution 1:100, 2,600 fluospheres
Method: (§1) Carboxylate-modified fluorospheres (Molecular Probes™, […]) coated with either recombinant PsaA (rPsaA) or PsaA synthetic peptide (P4) were evaluated for their adherence to Detroit 562 NP cells. Four different batches of PsaA beads were generated by varying the concentration of the protein solution used to coat the beads (0.9 mg/ml, 0.53 mg/ml, 5.3 μg/ml and 0.53 μg/ml). P4 and Glycine control beads were generated by using a peptide solution (0.9 mg/ml). Protein concentrations were confirmed by the Bradford test (Sigma). PsaA and peptide beads were compared at similar inocula (1640±210 beads per well) in adherence and adherence competition assays (measured as mean fluorescent units (FU±SE)).
Recombinant PsaA protein or synthetic peptides were covalently bound to carboxylate-modified FluoSpheres (Molecular Probes, Eugene, Oreg.) (505/515 nm range, yellow, 1 μm in diameter). […] The 2% fluosphere stock was vortexed for 2 minutes at full speed. A 250-μl aliquot was sonicated for 5 minutes to break clumps. The sonicated fluospheres were washed 3 times by centrifugation at 10,000 rpm for 10 minutes in 250 μl MES buffer, pH 6.0 (Molecular Probes). The negative charge in the carboxylate-modified fluospheres was activated by adding 50 μl of EDAC solution (100 mg/ml, Molecular Probes) to the washed fluospheres resuspended in 200 μl MES. The fluospheres were incubated for 30 minutes RT with gentle rotation. A 250-μl volume of rPsaA (1 mg/ml) or peptide (2 mg/ml) resuspended in MES buffer was added to each fluosphere pellet. Suboptimal concentrations of rPsaA (900, 530, 5.3 and 0.53 μg/ml) were also used to generate partially coated fluospheres. Peptides were dissolved as 1 mg in 50 μl of 10% acetic acid followed by addition of 450 μl of MES buffer, pH 6.0. The 500-μl fluosphere suspension was incubated in the dark over night at room temperature with horizontal rotation (150 rpm). The remaining reactive sites were blocked by addition of a 50-μl volume of 1 M solution of glycine, followed by a-30-minute incubation at room temperature with horizontal rotation. The fluosphere suspension was then washed with 500 μl PBS, 50 mM, pH 7.2-7.4 three times by centrifugation at 10,000 rpm for 10 minutes. The first supernatant of the first wash was saved for protein determinations using the microtiter microdilution method of Bradford (Bio-Rad Laboratories, Calif.). The labeled fluosphere pellet was resuspended in 500 μl of PBS, 50 mM, pH 7.2-7.4. Labeled fluospheres were stored in the dark in 100-μl aliquots at 4° C. for up to 4 months. The peptides were stored in powder form at 4° C. under Dryerite desiccant. The resuspended peptides were stored at 4° C. for 6 weeks and for long term storage at −70° C. Fluospheres were counted by limiting dilution using a fluorometer (FLX-600, BioTek) with 485/520 nm excitation/emission wavelength and comparison to a calibration curve previously generated against hemacytometer counts.
Confluent monolayers of Detroit 562 cells grown in 96-well tissue culture plates for 6 days were washed once with 130 μl/well of PBS buffer+0.5% BSA (Sigma cat #A2153, Fraction V purified by alcohol precipitation). The entire outer perimeter of the microtiter plate was not used for adherence assays due to edge effect and lack of confluent growth in these wells. An 80-μl volume per well of PBS buffer+1% BSA and 20 μl per well of diluted fluosphere suspension (to yield ˜3100±500 fluospheres in a 20-μl volume) were added to the washed monolayers. The diluted fluosphere suspension was sonicated for 3 minutes prior to addition to the center of the wells. […] The sides of the plates were then tapped gently to mix. […] Following incubation, plates were washed 5 times with 130 μL/well of PBS+0.5% BSA. The liquid was removed after each wash with a multi-channel aspirator (Costar) and moderate vacuum. The plate was allowed to dry before reading in the fluorometer (485/520 nm). […]

[2] = tested on: Detroit 562 cells; assay: Competitive inhibition of adherence of rPsaA-coated fluospheres to Detroit 562 cells; conditions: for percent reduction in adherence of rPsaA-coated beads: rPsaA-coated beads 0.9 mg/ml batch, ~1,640 beads per well
Method: as §1
(§2) Homologous competitive inhibitions with 0.5 to 10 μg per well of rPsaA protein or 5 to 20 μg per well of each peptide were performed to determine the specificity of the adherence for rPsaA-coated fluospheres or for each of the three peptide-coated fluospheres. Heterologous competitive inhibitions with each peptide (10 μg per well) were performed to determine which peptide blocked the adherence of whole PsaA-coated fluospheres to the Detroit 562 cells. Absorption of PsaA-specific antibodies was performed by incubation (2 hours at ambient room temperature with rotation, 100 rpm) of 500 μl (1:8 dilution) of the serum 7051 with nitrocellulose strips (2.5×0.5 cm), previously impregnated with rPsaA protein (1.8 mg/ml) and allowed to dry at 37° C. for 1 hour. Strips were replaced every 2 hours for a total of 3 changes. All antibody absorptions were performed in PBS (10 mM, pH 7.2) supplemented with 1% (weight/volume) BSA as a non-specific blocker. Immunoglobulin G (IgG) concentrations (μg/ml) were measured as previously described (Tharpe, Romero-Steiner) after each absorption step to monitor the decline of anti-PsaA antibodies.

[3] = tested on: Detroit 562 cells; assay: Homologous competitive inhibition of adherence of rPsaA- or peptide-coated fluospheres to Detroit 562 cells; conditions: for percent reduction in adherence of P4-coated beads: ~1,640 beads per well
Method: as §1, §2

[4] = homologous competitor 5.0 μg/well
[5] = homologous competitor 10 μg/well

LFVESSVKRRPMKTVSQDTNIPIYAQIF [P4, non-branched synthetic peptide, PsaA amino acid residues 251 to 278 with DD changed to KR]
mean adherence of coated fluospheres (mean FU±SE) [1]: 20,317±448 FU | adherence of P4-coated beads (FU±SE) ([1]; beads coated with 0.9 mg/ml peptide solution, 1640±210 beads per well): 19,340 FU | inhibition of the binding of PsaA protein to Detroit 562 cells [2]: ≥ 95% | percent reduction in adherence of rPsaA-coated beads ([2]; competitor 5.0 μg/well): 23% and 18.5% | percent reduction in adherence of rPsaA-coated beads ([2]; competitor 10 μg/well): 57.6% | percent reduction in adherence of rPsaA-coated beads ([2]; competitor 20 μg/well): 95% and 95.9% | inhibition of rPsaA-fluosphere adherence, heterologous competition ([2]; peptide 10 μg/well): 57.6% | inhibition of rPsaA-fluosphere adherence, heterologous competition ([2]; peptide 20 μg/well (6.2×10^−2 mM)): 95.9% | percent reduction in adherence of P4-coated beads ([3]; competitor 5.0 μg/well): 89% and 89.4% | percent reduction in adherence of P4-coated beads ([3]; competitor 10 μg/well): 88% and 87.6% | percent reduction in adherence of P4-coated beads ([3]; competitor 20 μg/well): 89% and 88.9% | percent reduction in adherence of homologous coated fluospheres [3, 4]: 89.4% | percent reduction in adherence of homologous coated fluospheres [3, 5]: 87.6% | percent reduction in adherence of homologous coated fluospheres ([3]; homologous competitor 20 μg/well): 88.9%

B1: rPsaA: purified recombinant pneumococcal surface adhesin A, non-lipidated, donated by Aventis-Pasteur (protein)
chain: CASGKKDTTSGQKLKVVATNSIIADITKNIAGDKIDLHSIVPIGQDPHEYEPLPEDVKKTSEADLIFYNGINLETGGNAWFTKLVENAKKTENKDYFAVSDGVDVIYLEGQNEKGKEDPHAWLNLENGIIFAKNIAKQLSAKDPNNKEFYEKNLKEYTDKLDKLDKESKDKFNKIPAEKKLIVTSEGAFKYFSKAYGVPSAYIWEINTEEEGTPEQIKTLVEKLRQTKVPSLFVESSVDDRPMKTVSQDTNIPIYAQIFTDSIAEQGKEGDSYYSMMKYNLDKIAEGLAK
mean adherence signal (n=6) ([1]; 20 min incubation): 2,315 FU | mean adherence signal (n=6) ([1]; 140 min incubation (plateau starts)): 16,597 FU | mean adherence signal (n=6) ([1]; 180 min incubation): 17,498 FU | mean adherence of coated fluospheres (mean FU±SE) [1]: 44,195±2,648 FU | mean adherence (% CV) ([1]; day 1 after labeling): 30,105 FU | mean adherence (% CV) ([1]; day 60 after labeling): 30,595 FU | adherence of PsaA beads (FU±SE) ([1]; beads coated with 0.53 μg/ml rPsaA, 1640±210 beads per well): 5,892 FU | adherence of PsaA beads (FU±SE) ([1]; beads coated with 5.3 μg/ml rPsaA, 1640±210 beads per well): 12,788 FU | adherence of PsaA beads (FU±SE) ([1]; beads coated with 0.53 mg/ml rPsaA, 1640±210 beads per well): 16,748 FU | adherence of PsaA beads (FU±SE) ([1]; beads coated with 0.9 mg/ml rPsaA, 1640±210 beads per well): 47,875 FU | inhibition of the adherence of PsaA-coated fluospheres, cold chase ([2]; non-fluorescent spheres coated with PsaA protein): up to 31% | reduction of adherence of rPsaA fluospheres by whole recombinant protein ([3]; 0.5 to 10 μg/well): unable to significantly reduce | reduction of adherence of rPsaA-coated fluospheres ([3]; additional concentrations 0.125 to 10.0 μg/well vs 3 μg/well): did not result in any further reduction | percent reduction in adherence of homologous coated fluospheres ([3]; homologous competitor 0.5 μg/well): −5.2% | percent reduction in adherence of homologous coated fluospheres ([3]; homologous competitor 1.0 μg/well): 9.8% | percent reduction in adherence of homologous coated fluospheres ([3]; homologous competitor 2.0 μg/well): 17.0% | percent reduction in adherence of homologous coated fluospheres [3, 4]: 13.7% | percent reduction in adherence of homologous coated fluospheres [3, 5]: 11.4%

Source: US7919104B2, “Functional epitopes of Streptococcus pneumoniae PsaA antigen and uses thereof” (priority 2005, dated 2011)
